# Laboratory results taken from the nanobody polyreactivity screen of Harvey et al. (2022).
# Test: yeast display, Sf9 membrane polyspecificity reagent, FACS + sequencing; frameworks hold sequencing errors
# Method in brief: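 After 36–48 hours of galactose induction, yeast (Saccharomyces cerevisiae BJ5465) displaying a synthetic nanobody library were stained at 4 °C for 1 hour with 10% biotinylated, detergent-solubilized Sf9 membrane reagent. Streptavidin microbeads enriched the stained cells before FACS sorting into low and high (top ~1%) gates on anti-HA and streptavidin fluorescence. Each clone's polyreactivity label reflects its gate of origin.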
row,Sequence,polyreactivity (PSR sort gate)
1,QVQLVESGGGLVQAGGSIRLICAASGFTFSRYAMGWYRQAPGKERELVAVISSSGSRTYYADSVKGRFTISRDNAKNTVYLQMNSLKPEDTAVYYCAAKSRPRYYGTEPFDSWGQGTQVTVSS,high polyreactivity
2,QVQLVESGGGLVQAGGSIRLSCAASGFIFRGNAMGWYRQAPGKERELVARISGSGDSTYYADSVKGRFTISRDNAKNTVYFQMNSQKPEATEVYDCNADVFPGVEAYDSTIEYYSWGQGTQVTVSS,low polyreactivity
3,QVQLVESGGGLVQAGGSIRLSCAASGITFTLYAMGWYRQAPGKEMELVAAITISAGSTYYADSVKGRFTISRDNAKNTVYLQINSLKPEDTAVYYCAAESYGSWYYYWGQGTQVTVSS,high polyreactivity
4,QVQLVESGGGLVQAGGSIRLSCAASGITFVGNAMGWYRQAPGKERELVASISSGASTNYADSVKGRFTISRDNAKNTVYLQMNSLKPEDTAVYYCAAEGSLEGWDFDSWGQGTQVTVSS,low polyreactivity
5,QVQLVESGGGLVQAGGSIRLSCAASGLIFRYYTMGWYRQAPGKERELVATITKSGSSTYYADSVKGRFTISRDNAKNTVYLQMNSLKPEDTAVYYCAARVTRRYDYWGQGTQLTVSS,high polyreactivity
6,QVQLVESGGGLVQAGGSIRLSCAASGNIFVSYAMGWYRQAPAKERELVAAISKSGGSTYYADSVKGRFTISRDNAKNTVYLQMNSLKPEDTAVYYCAARWYNRVKYQKYNYWGQGTQVTVSS,high polyreactivity
7,QVQLVESGGGLVQAGGSIRLSCAASGRIFYPYAMGWYRPAPGKDRELVAAIRRSGVDTYYADSVKGRFTISRDNAKQTVYLQMNSLKPEDTAVYYCAADPYWFFAHYDSWGQGTQVTVSS,low polyreactivity
8,QVQLVESGGGLVQAGGSIRLSCAASGRISTYYTMGWYRQAPGKERELVAAISWSGTSTYYADSVKGRFTISRDNAKNTVYLQMNSLKPEDTAVYYCNARWRYPLDSVTDDYWGQGTQVTVSS,high polyreactivity
9,QVQLVESGGGLVQAGGSIRLSCAASGSIFGSNAMGWYRQAPGKERELVDAISGSGGSTNYADSVKGRFTISRDNAKNTVYLQMNSLKAEDTAVYYCAVPSKATGSASTSSGIFDSWGQGTQVTVSS,low polyreactivity
10,QVQLVESGGGLVQAGGSIRLSCAASGSIFRPYVMGWSRPAPGKERELVAAISSRGGDTYYADYVKGRFTISRDYAKNTVNVQMISLKPEDTAVYYCNARYYTSYDYWGQGSQVTVSS,low polyreactivity
11,QVQLVESGGGLVQAGGSIRLSCAASGSTFAKNAMGWYRQAPGKERELVAAISRGGNTYYADSGKGRFTISRDNAKNTVYLQMNSLKPEDTAVYYCSKLPFTRTYLGSLYDYWGQGTQVTVSS,high polyreactivity
12,QVQLVESGGGLVQAGGSIRLSCAASGSTFDPYAMGWYRQAPGKEREVVAAISGSRGGSTNYADSVKGRFTISRDNAKNTVYLQMNSLKQEDTAVFYCNARFSYRNGHYYRYYYGGQGTQVTVSS,high polyreactivity
13,QVQLVESGGGLVQAGGSIRLSCAASGSTFDYYAMGWYRQAPGKDRELVAAITTSGSSTFYADSVKGRFTIARDNAKNTVYVQMNSLKPEDTADYYCAAVFRWARQRWLDYWGQGTQVTVSS,high polyreactivity
14,QVQLVESGGGLVQAGGSIRLSCAASGSTFLIKAMGWYRQAPGKERELDASINRRGTSTFYADSVKARFTISRDNAKNTVYLQMNSLKPDDTAVYYCNAYPGAAIRSTGRYDYWGQGTQVTVSS,low polyreactivity
15,QVQLVESGGGLVQAGGSIRLSCAASGSTFRGYSMGWYRQAPGKERELVAAISSRGARTHYADSVKGRFTISRDNSKNTVYLQMNCLKPEDTAVYDCAKVWVRSGRRKMDYWGQGTQVTVSS,low polyreactivity
16,QVQLVESGGGLVQAGGSIRLSCAASGSTFVWNAMGWYRQAPGKERELVAAISSSGGSTYYADSVKGRFTISRDNAKNTVYLQMNSLKPEDTAVYYCAAYYGRRRFGYWGQGTQVTVSS,high polyreactivity
17,QVQLVESGGGLVQAGGSIRLSCAASGYILGRYAMGWYRQAPGKERELVAAITSGGSTYYADSVKGRFTISRDNAKNSVSLQMNSLKPEDTAVYYCAAYTRYWSYGYWGQGTQVTVSS,high polyreactivity
18,QVQLVESGGGLVQAGGSIRLSCAASVSIQTRNAMGWYRQAPGKERELVAAISRGGSTTYADSVKGRFTISRDNAKNTVYLQMNSLKPEDTAVYYCAASDYYVLSRRTRMDYWGQGTQVTVAS,high polyreactivity
19,QVQLVESGGGLVQAGGSIRLSCADSGIIFQANAMGWYRQAPRKERELVAGISRGSSTNYADSVKGRFTISLDNAKNTVYLQMNSLKPEDTAVYYCSAGFYYRPFYGSSHSYGYWGQGTQVTVSS,low polyreactivity
20,QVQLVESGGGLVQAGGSIRLSCASSGSTFTIYAMGWYRPAPGKERELVAAISGTGGTKYADSVKGRFTISRDNAKNTVYLQMNSLKPEDTAVYYCAVGLVPLRDGWHFYYEFDSWGQGTQVTVSS,low polyreactivity
21,QVQLVESGGGLVQAGGSIRLTCAASGSTFGKYAMGWYRQAPGKERELVARIDSGDGTYYADSLKGRFTISRDNAKNTVYLKMNSLKAEDTAVYYCAAGYGARRLTYFWPQYARYDYWGQGTQVTVSS,high polyreactivity
22,QVQLVESGGGLVQAGGSLCLSCAASGFIFEFYTMGWYRQAPGKERELVAAITNGDSTNYADSVKGRFTISRDNAKNTVYLQMNSLKPEDTAVYYCAADGKGETEYSSHPGWAFDYWGQGTQVTVSS,low polyreactivity
